# Measured values as given in US5484732, “Transcription factor for regulation of the development of skin and hair” (The Regents of the University of California, dated 1996).
# Biological target: the molecule itself
# Test: DSS crosslinking in solution of 35S-labelled protein translated in vitro, SDS/polyacrylamide gel (self-association)
# Experimental: With respect to (1), the effect of the Skn-1i inhibitory region on dimerization in solution was assayed by the ability of a homobifunctional crosslinking agent [disuccnidyl suberate (DSS)] to crosslink in vitro translated proteins.
# Specifically, approximately 100,000 cpm of ^35S-labeled Skn-1i, Δ32Skn-1i, 1–99 (N/T) Skn1-i and Δ60 (N/T) Skn1-i proteins were added separately to […] of binding buffer (10 mM HEPES [pH7.8], 50 mM K CI, 5% glycerol). After 15 minutes at room temperature, […] of DSS (suspended in 5 mg/ml DMSO) or DMSO alone was added to each of the reactions. After 5 minutes, the reaction was stopped by adding SDS sample buffer to each which was then boiled prior to analyses on SDS/polyacrylamide gels. To quantitate crosslinking efficiency, monomers ("M" on FIG. 12) and dimers ("D" on FIG. 12) were excised from the gel and counted by scintillation counting.
protein,measurement,value
Δ32 Skn-1i (other) LQPNLLSFPQQQSTLLLPQTGPGLTSQAVGRPGLSGSSLEPHLEASQHLPGPKHLPGPGGNDEPTDLEELEKFAKTFKQRRIKLGFTQGDVGLAMGKLYGNDFSQTTISRFEALNLSFKNMCKLKPLLEKWLNDAESSPADPSASTPSSYPTLSEVFGRKRKKRTSIETNIRLTLEKRFQDNPKPSSEEISMIAEQLSMEKEVVRVWFCNRRQKEKRINCPVATPVKPPIYNSRLVSPSGSLGSLSVPPVHSTMPGTVTSSCSPGNNSRPSSPGSGLHASSPTASQNNSKAAMNPSSAAFNSSGSWYRWNHPAYLH,binding result,no binding
